From US20140271478A1 (University of California, published 2014)
Positions count from the first letter of the chain named.

T1: mouse integrin β8 (mouse, UniProt Q0VBD0 22-767)
T1 construct: whole, on cells; also called mouse β8; itgb8
T1 sequence (looked up): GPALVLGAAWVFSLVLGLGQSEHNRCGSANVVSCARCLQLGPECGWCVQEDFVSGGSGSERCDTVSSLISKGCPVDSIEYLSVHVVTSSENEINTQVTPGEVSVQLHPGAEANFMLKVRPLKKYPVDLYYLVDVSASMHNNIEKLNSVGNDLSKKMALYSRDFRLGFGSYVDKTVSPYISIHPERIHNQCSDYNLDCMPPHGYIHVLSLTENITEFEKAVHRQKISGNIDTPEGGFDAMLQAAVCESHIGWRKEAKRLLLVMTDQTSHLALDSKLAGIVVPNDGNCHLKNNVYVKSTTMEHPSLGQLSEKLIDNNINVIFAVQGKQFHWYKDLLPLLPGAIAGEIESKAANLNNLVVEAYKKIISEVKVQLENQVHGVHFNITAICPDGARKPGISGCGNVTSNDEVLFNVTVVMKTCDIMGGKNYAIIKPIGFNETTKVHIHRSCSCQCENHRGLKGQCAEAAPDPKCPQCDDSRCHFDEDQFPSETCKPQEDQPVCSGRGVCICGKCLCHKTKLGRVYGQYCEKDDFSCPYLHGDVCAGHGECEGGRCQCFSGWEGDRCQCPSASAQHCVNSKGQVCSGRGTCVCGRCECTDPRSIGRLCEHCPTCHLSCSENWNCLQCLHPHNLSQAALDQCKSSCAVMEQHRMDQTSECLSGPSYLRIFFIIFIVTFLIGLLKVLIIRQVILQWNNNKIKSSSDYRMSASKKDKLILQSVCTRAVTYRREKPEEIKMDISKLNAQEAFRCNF

T2: human integrin β8 swap construct RKMAFY (SEQ ID NO:130) (human, UniProt P26012 43-769)
T2 sequence: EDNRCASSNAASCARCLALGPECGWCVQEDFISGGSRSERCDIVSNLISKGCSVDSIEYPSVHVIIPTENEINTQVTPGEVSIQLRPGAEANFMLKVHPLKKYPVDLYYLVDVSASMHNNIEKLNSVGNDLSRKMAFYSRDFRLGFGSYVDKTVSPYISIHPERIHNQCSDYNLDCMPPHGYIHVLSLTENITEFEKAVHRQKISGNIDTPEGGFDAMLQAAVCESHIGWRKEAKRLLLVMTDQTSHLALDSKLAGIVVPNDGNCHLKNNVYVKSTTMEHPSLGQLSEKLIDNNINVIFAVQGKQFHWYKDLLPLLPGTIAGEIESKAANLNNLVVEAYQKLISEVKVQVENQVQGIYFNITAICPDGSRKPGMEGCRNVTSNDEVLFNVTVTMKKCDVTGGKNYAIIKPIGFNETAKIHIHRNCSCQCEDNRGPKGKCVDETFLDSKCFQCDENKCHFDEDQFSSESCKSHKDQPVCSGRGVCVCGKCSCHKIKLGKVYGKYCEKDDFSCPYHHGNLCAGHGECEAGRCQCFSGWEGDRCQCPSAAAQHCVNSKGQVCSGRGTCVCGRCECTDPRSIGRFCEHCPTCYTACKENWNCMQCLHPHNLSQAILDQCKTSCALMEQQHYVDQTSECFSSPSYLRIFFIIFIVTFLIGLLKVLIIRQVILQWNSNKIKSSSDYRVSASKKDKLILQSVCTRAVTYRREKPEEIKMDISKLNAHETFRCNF

T3: human integrin β8 swap construct RKMALF (SEQ ID NO:134) (human, UniProt P26012 43-769)
T3 sequence: T2 sequence with F137L, Y138F

B1: 37E1B5 antibody (antibody, V domains shown)
VH: EVQLVESGGGLVQPGGSLNLSCAVSGFVFSRYWMSWVRQAPGKGLEWIGEINPDSSTINYTSSLKDKFIISRDNAKNTLYLQMNKVRSEDTALYYCACLITTEDYWGQGTSVTVSS
VL: QIVLTQSPSSMYASLGERVTIPCKASQDINSYLSWFQQKPGKSPKTLIYYANRLVDGVPSRFSGSGSGQDYSLTISSLEYEDMGIYYCLQYDEFPYTFGGGTKLEIK
B2: 14E5 antibody (antibody, V domains shown)
VH: EVQLQQSGAELMKPGASVKISCKATGYTFSTYWIEWIKQRPGHGLEWIGHILPGSVITNYNEKFKGKAAITADTSSNTSYMQLSSLTSEDSAVYYCARWGWDSYWGQGTLVTVSS
VL: DIEMTQSPSSLSASLGDRVTISCSTSQDISSSLNWYQQKPDGTVTLLIYYTSNLHSGVPSRFSGSGSGTDYSLTISNLEPEDIATYYCQQYSKLPYTFGGGTKLEIKR
notes: Mouse hybridoma antibody; also called hybridoma clone 14E5
B3: 11E8 antibody (antibody, V domains shown)
VH: EVQLQQSGPELMKTGASVKISCKATGYTFSSYWIEWVKQRPGHGLEWIGDILPGSGTTNYNEKFKGRATVTADRSSNTAYMQLSSLTYGDSAVYYCATWGWDTYWDQGTSVTVSS
VL: B2 VL with E3V, T25A, D28G, S31N, S32Y, T45K, N53S, K93N
notes: Mouse hybridoma antibody

target: T1, mouse integrin β8; experiment: cell staining of β8 amino acid swap constructs (175-180)

Row | % positive [%] | Binder
1 | 0 | B1
2 | 0 | B2
3 | 0 | B3

target: T2, human integrin β8 swap construct RKMAFY …; experiment: as above

Row | % positive [%] | Binder
4 | 89 | B1
5 | 6 | B2
6 | 108 | B3

target: T3, human integrin β8 swap construct RKMALF …; experiment: as above

Row | % positive [%] | Binder
7 | 131 | B1
8 | 150 | B2
9 | 125 | B3

target: T4, human integrin αβ8 (αvβ8) expressed on cells (human, UniProt P06756 31-1048); experiment: as above
T4 construct: whole, on cells; β8 transfected into or endogenous on cells, unfixed or formalin fixed; also called human integrin β8; ITGB8
T4 sequence (P06756 31-1048): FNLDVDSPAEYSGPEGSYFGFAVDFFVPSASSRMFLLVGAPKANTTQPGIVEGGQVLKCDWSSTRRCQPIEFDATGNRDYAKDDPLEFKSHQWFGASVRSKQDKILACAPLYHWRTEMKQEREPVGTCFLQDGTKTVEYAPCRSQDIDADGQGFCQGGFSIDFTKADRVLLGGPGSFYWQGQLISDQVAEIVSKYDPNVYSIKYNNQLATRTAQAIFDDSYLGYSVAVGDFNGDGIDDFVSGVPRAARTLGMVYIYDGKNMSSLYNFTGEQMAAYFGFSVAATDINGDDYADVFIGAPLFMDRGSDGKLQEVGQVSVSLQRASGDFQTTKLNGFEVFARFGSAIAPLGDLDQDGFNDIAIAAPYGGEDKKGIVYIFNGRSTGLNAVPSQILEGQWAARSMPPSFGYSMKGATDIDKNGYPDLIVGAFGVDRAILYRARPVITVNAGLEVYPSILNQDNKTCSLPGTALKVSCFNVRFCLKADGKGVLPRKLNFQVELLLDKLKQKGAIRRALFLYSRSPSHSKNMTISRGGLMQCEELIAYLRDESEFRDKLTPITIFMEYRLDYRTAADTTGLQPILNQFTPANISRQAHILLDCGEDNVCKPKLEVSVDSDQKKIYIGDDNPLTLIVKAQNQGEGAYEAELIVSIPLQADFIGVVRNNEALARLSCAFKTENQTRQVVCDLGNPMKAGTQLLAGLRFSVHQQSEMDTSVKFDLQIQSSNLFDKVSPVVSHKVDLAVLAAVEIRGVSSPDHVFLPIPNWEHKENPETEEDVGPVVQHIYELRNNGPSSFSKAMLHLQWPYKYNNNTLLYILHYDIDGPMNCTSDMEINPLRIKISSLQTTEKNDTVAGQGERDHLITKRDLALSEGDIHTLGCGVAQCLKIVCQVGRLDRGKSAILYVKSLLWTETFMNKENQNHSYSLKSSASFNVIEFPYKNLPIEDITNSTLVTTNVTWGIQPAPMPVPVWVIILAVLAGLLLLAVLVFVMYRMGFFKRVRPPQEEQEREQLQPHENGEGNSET

Row | % positive [%] | Binder
10 | 108 | B1
11 | 112 | B2
12 | 97 | B3
